The values below come from patent US11466066B2, “Variants of human BMP7 protein” (ELI LILLY AND COMPANY, priority 2017, dated 2022).

Holding throughout (type): in vivo
The test system of series [1] is female CB17SC-M SCID mice. Kind of series: Ectopic bone formation model. Conditions: 3 μg/100 μl subcutaneous; CT scan on Day 13. The procedure: Ectopic bone formation (EBF) may be measured in female CB17SC-M SCID mice upon subcutaneous administration of certain human BMP7 protein variants of the present invention compared to wild type human mature BMP7.
Briefly described, the mice may be anesthetized with 3% isoflurane and are injected with 3 μg/100 μl of the human BMP7 protein variant, wild type human mature BMP7 protein or a vehicle control on the back left flank. The back right flank of each mouse may serve as a control (no injection). Vehicle (pH 4.5): 0.5% Sucrose, 2.5% Glycine, 5 mM L-Glutamic Acid, 5 mM NaCl, 0.01% polysorbate 80, and, 0.1% BSA.
EBF may be measured by a CT scan on Day 13 after injection of the human BMP7 protein variant or wild type human mature BMP7 protein.

In series [2] the test system is monosodium iodoacetate (MIA)-induced rat model of OA pain. The series can be described thus: MIA rat model of osteoarthritic pain. As to the method: The effect of human mature BMP7 protein variant F9 (SEQ ID NO: 8) may be evaluated in the monosodium iodoacetate (MIA)-induced rat model of OA pain (Bove, et. al., Osteoarthritis and Cartilage, 2003, 11: 821-830).
Briefly stated, male Lewis rats aged 7-8 weeks at the time of MIA injection may be used for this study. For induction of osteoarthritis, the rats may be anesthesized with isoflurane and given a single intra-articular injection of 0.3 mg/50 μl MIA through the infrapatellar ligament of the right knee. The left contralateral control knee may be injected with 50 μl sterile saline. The animals are treated with wild type human mature BMP7 protein at a dose of 1.0 μg/knee and human mature BMP7 protein variant F9 (SEQ ID NO: 8) at 0.175 μg and 0.7 μg/knee via intra-articular injections on day 9 and 14 post-MIA.
Pain measurements may be made by incapacitance testing on days 17, 24, 31, 38, 45, 52, 58, and 66 post-MIA injection using an incapacitance tester (Columbus Instruments International, Columbus, Ohio). Changes in hind paw weight distribution between the osteoarthritic (right) and contralateral control (left) limb may be utilized as an index of joint discomfort (measure of pain) in the osteoarthritic knee. Results may be presented as the difference in weight bearing between the contralateral control (left) and the osteoarthritic (right).

In series [3] the test system is meniscal tear (MT) induced rat model of cartilage degeneration. The series can be described thus: Meniscal tear rat model of cartilage degeneration. An excerpt:
The effect of human mature BMP7 protein variant (SEQ ID NO: 8) may be evaluated using an osteoarthritic (OA) pain in the meniscal tear (MT) induced rat model of cartilage degeneration. Male Lewis rats (approximately 25 weeks of age) may be used for such a study. Briefly described, rats may be anesthetized with 3% isoflurane prior to surgery. The right knee may be flexed and a transverse medial incision is made along the proximal antero-medial aspect of the tibia exposing the medial […] ligament. The […] ligament and the joint capsule may be incised simultaneously freeing the tibial attachments of the medial meniscus. Approximately 3 mm of the meniscus may be freed from its attachment to the margin of the tibial plateau and the meniscus may be transected to simulate a complete tear. The incision may be closed with surgical glue.
The animals may be treated with wild type human mature BMP7 at a dose of 350 ng/knee or human mature BMP7 protein variant F9 (SEQ ID NO: 8) at two doses of 49 ng or 245 ng/knee in 50 μl phosphate buffered saline (PBS), pH 7.4. The treatment may be initiated 3 weeks after MT surgery and continued for […]. Animals may be administered weekly intra-articular injections of wild type human mature BMP7 or human mature BMP7 protein variant F9 (SEQ ID NO: 8) or vehicle at various doses for 5 weeks into the operated knee. Pain measurements may be made by incapacitance testing on days 18 (baseline), 25, 31, 42 and 53 post MT surgery using an incapacitance tester (Columbus Instruments International, Columbus, Ohio). Changes in hind paw weight distribution between the osteoarthritic (right) and contralateral control (left) limb may be utilized as an index of joint discomfort (measure of pain) in the osteoarthritic knee. Results may be presented as the difference in weight bearing between the contralateral control (left) and the osteoarthritic (right).

Series [4] deals with rat surgical fracture model. The series can be described thus: Bone healing model (cortical defect). Conditions: day 35; for BMC: mean ± SEM; for % Increase From Vehicle Control: BMC. An excerpt: The effect of wild type human mature BMP7 and variants thereof may be evaluated on bone regeneration and repair or bone healing in a rat surgical fracture model. Animals may be ovariectomized at 6 months of age and allowed to lose bone for two months before fracture surgery. Cortical defect surgery may be performed essentially as previously described (Komatsu, et al., Endocrinology, 150:1570-1579, 2009). Briefly, the procedure involves incising the skin over the lateral femoral aspect and blunt dissection of the quadriceps to expose the distal femoral diaphysis. Cortical defects may be then generated through the anterior and posterior cortexes using a Dremel tool (Robert Bosch Tool Corp, Gerlingen, Germany) equipped with a 2 mm orthopedic drill bit (Zimmer Inc, Warsaw, Ind.). The muscles may be subsequently repositioned, and the skin may be closed with tissue adhesive. Groups of animals may be treated with various amounts of wild type human mature BMP7 or variants thereof prepared in sodium citrate buffer pH 3.0 and adsorbed to Helistat type-1 collagen sponges in a volume of 50 μl. The treatments may be administered locally at the site of defect during surgery and treated for 35 days. A control group may receive the vehicle containing the same constituents in collagen sponge without the therapeutic proteins. In vivo fracture repair and bone mineral content (BMC) may be evaluated by quantitative computed tomography (QCT) using a GE Locus Ultra CT scanner (GE Healthcare, London, Ontario, Canada) as described previously (Komatsu et al., 2008).

Where [5] appears, read: 16.5 μg on collagen sponge at defect site.

Positions count from the first letter of the chain named. In names and notes the source's numbering stands. Marks after values point to notes of the source that are not given here.

B1: Human mature BMP7 protein variant F9 (SEQ ID NO: 8): homodimer wherein each monomeric subunit has SEQ ID NO: 8 (Y65G/I86L/F93V/N110G/Y128W), disulfide linked (protein)
chain: STGSKQRSQNRSKTPKNQEALRMANVAENSSSDQRQACKKHELYVSFRDLGWQDWIIAPEGYAAGYCEGECAFPLNSYMNATNHALVQTLVHVINPETVPKPCCAPTQLGAISVLYFDDSSNVILKKWRNMVVRACGCH
modifications: homodimer, disulfide linked
Regarding B1, the “Ectopic Bone Formation Volume” value in series [1] was determined as 7 mm^3. For the same molecule, the “Difference in hind paw weight bearing” value in series [2] (0.175 μg/knee intra-articular day 9 and 14, Day 17 post-MIA) is 23.29 ± 1.31 g; in series [2] (0.175 μg/knee, Day 24) it was 24.32 ± 2.97 g; in series [2] (0.175 μg/knee, Day 31) it was 21.87 ± 2.14 g; in series [2] (0.175 μg/knee, Day 38) it was 20.82 ± 1.03^b g; in series [2] (0.175 μg/knee, Day 45), 19.44 ± 0.80 g; in series [2] (0.175 μg/knee, Day 52) it was 19.35 ± 0.77 ^b g. Besides, the “Difference in hind paw weight bearing” value is given as 17.42 ± 3.16^b g in series [2] (0.175 μg/knee, Day 58); 15.00 ± 1.84^b g in series [2] (0.175 μg/knee, Day 66); 36.75 ± 6.45^b g in series [2] (0.7 μg/knee intra-articular day 9 and 14, Day 17 post-MIA); 29.78 ± 8.39 g in series [2] (0.7 μg/knee, Day 24); 26.62 ± 6.07 g in series [2] (0.7 μg/knee, Day 31); 23.63 ± 0.90 g in series [2] (0.7 μg/knee, Day 38). Besides, the “Difference in hind paw weight bearing” value in series [2] (0.7 μg/knee, Day 45) is listed as 21.75 ± 4.34 g; in series [2] (0.7 μg/knee, Day 52), 20.51 ± 3.03 g; in series [2] (0.7 μg/knee, Day 58), 16.72 ± 0.79^b g; in series [2] (0.7 μg/knee, Day 66) it was 13.06 ± 1.78^b g; in series [3] (Treatment C, 49 ng/knee weekly intra-articular, Baseline (day 18 post MT surgery)) it was 52.48 ± 2.11 g; in series [3] (Treatment C, 49 ng, Day 25), 49.96 ± 0.66 g. Further, the “Difference in hind paw weight bearing” value in series [3] (Treatment C, 49 ng, Day 31) is 49.52 ± 1.10^b g; in series [3] (Treatment C, 49 ng, Day 42) it was 44.8 ± 3.04^b g; in series [3] (Treatment C, 49 ng, Day 53) it was 45.70 ± 2.77 g; in series [3] (Treatment D, 245 ng/knee weekly intra-articular, Baseline (day 18 post MT surgery)), 52.02 ± 2.19 g; in series [3] (Treatment D, 245 ng, Day 25) it was 49.77 ± 1.00 g; in series [3] (Treatment D, 245 ng, Day 31), 49.54 ± 2.77^b g. Moreover, the “Difference in hind paw weight bearing” value in series [3] (Treatment D, 245 ng, Day 42) is 42.37 ± 1.28^b g; in series [3] (Treatment D, 245 ng, Day 53), 38.68 ± 1.68^b g. The BMC in series [4] (2.0 μg on collagen sponge at defect site) is reported as 16.19 ± 1.09 mg; in series [4] (setting [5]), 18.13 ± 2.29^a mg. Moreover, the cortical area entry in series [4] (16.5 μg) is recorded as “significant increase”. The “% Increase From Vehicle Control” value in series [4] (2.0 μg) was found to be 114%; in series [4] (16.5 μg) it was 128%.

B2: Wild type human mature BMP7 (SEQ ID NO: 2): dimer of two glycosylated, 139 amino acid disulfide-linked proteins of about 35 kDa, SEQ ID NO: 2 (protein, listed as Homo sapiens)
chain: B1 chain with G65Y, L86I, V93F, G110N, W128Y
modifications: disulfide-linked glycosylated homodimer
Take B2: in series [1], the “Ectopic Bone Formation Volume” value is 78 mm^3. Also, the “Difference in hind paw weight bearing” value in series [2] (1.0 μg/knee intra-articular day 9 and 14, Day 17 post-MIA) is reported as 27.52 ± 2.81 g; in series [2] (1.0 μg/knee, Day 24) it was 26.05 ± 2.81 g; in series [2] (1.0 μg/knee, Day 31) it was 23.46 ± 1.23 g; in series [2] (1.0 μg/knee, Day 38) it was 22.68 ± 0.61 g; in series [2] (1.0 μg/knee, Day 45) it was 20.95 ± 0.87 g; in series [2] (1.0 μg/knee, Day 52) it was 20.37 ± 0.71 g. The “Difference in hind paw weight bearing” value in series [2] (1.0 μg/knee, Day 58) is given as 17.66 ± 1.79^b g; in series [2] (1.0 μg/knee, Day 66), 17.59 ± 2.68^b g; in series [3] (Treatment B, 350 ng/knee weekly intra-articular, Baseline (day 18 post MT surgery)) it was 52.33 ± 2.45 g; in series [3] (Treatment B, 350 ng, Day 25) it was 50.76 ± 1.09 g; in series [3] (Treatment B, 350 ng, Day 31), 49.97 ± 1.10 g; in series [3] (Treatment B, 350 ng, Day 42) it was 46.81 ± 1.34^b g. The “Difference in hind paw weight bearing” value in series [3] (Treatment B, 350 ng, Day 53) came out at 47.77 ± 1.78 g. The same molecule displayed a BMC in series [4] (setting [5]) of 16.25 ± 1.60 mg. Moreover, the “% Increase From Vehicle Control” value in series [4] (16.5 μg) was found to be 115%.
